Test results reported in patent US20140274782A1, “AFFINITY REAGENTS AND METHODS FOR DETECTION, PURIFICATION, AND PROTEOMIC ANALYSIS OF METHYLATED PROTEINS” (The Board of Trustees of the Leland Stanford Junior …, priority 2013, published 2014).

B1: 3×MBT: three MBT repeats of L3MBTL1 (amino acids 190-530 of accession NP—056293.4), expressed as GST or Flag fusion; methyl-lysine affinity reagent (protein)
chain: EEWSSSQPATGEKKECWSWESYLEEQKAITAPVSLFQDSQAVTHNKNGFKLGMKLEGIDPQHPSMYFILTVAEVCGYRLRLHFDGYSECHDFWVNANSPDIHPAGWFEKTGHKLQPPKGYKEEEFSWSQYLRSTRAQAAPKHLFVSQSHSPPPLGFQVGMKLEAVDRMNPSLVCVASVTDVVDSRFLVHFDNWDDTYDYWCDPSSPYIHPVGWCQKQGKPLTPPQDYPDPDNFCWEKYLEETGASAVPTWAFKVRPPHSFLVNMKLEAVDRRNPALIRVASVEDVEDHRIKIHFDGWSHGYDFWIDADHPDIHPAGWCSKTGHPLQPPLGPREPSSASPGG
modifications: left off: a dimerising Fc or GST
B2: SCML2: protein with methylated lysine identified in 3xMBT pull-down (protein, UniProt Q9UQR0 1-700, looked up)
Sex comb on midleg-like …: MGQTVNEDSMDVKKENQEKTPQSSTSSVQRDDFHWEEYLKETGSISAPSECFRQSQIPPVNDFKVGMKLEARDPRNATSVCIATVIGITGARLRLRLDGSDNRNDFWRLVDSPDIQPVGTCEKEGDLLQPPLGYQMNTSSWPMFLLKTLNGSEMASATLFKKEPPKPPLNNFKVGMKLEAIDKKNPYLICPATIGDVKGDEVHITFDGWSGAFDYWCKYDSRDIFPAGWCRLTGDVLQPPGTSVPIVKNIAKTESSPSEASQHSMQSPQKTTLILPTQQVRRSSRIKPPGPTAVPKRSSSVKNITPRKKGPNSGKKEKPLPVICSTSAASLKSLTRDRGMLYKDVASGPCKIVMSTVCVYVNKHGNFGPHLDPKRIQQLPDHFGPGPVNVVLRRIVQACVDCALETKTVFGYLKPDNRGGEVITASFDGETHSIQLPPVNSASFALRFLENFCHSLQCDNLLSSQPFSSSRGHTHSSAEHDKNQSAKEDVTERQSTKRSPQQTVPYVVPLSPKLPKTKEYASEGEPLFAGGSAIPKEENLSEDSKSSSLNSGNYLNPACRNPMYIHTSVSQDFSRSVPGTTSSPLVGDISPKSSPHEVKFQMQRKSEAPSYIAVPDPSVLKQGFSKDPSTWSVDEVIQFMKHTDPQISGPLADLFRQHEIDGKALFLLKSDVMMKYMGLKLGPALKLCYYIEKLKEGKYS

Legend:
G9a SET domain = molecular target: T1, G9a SET domain (Homo sapiens, UniProt Q96KQ7); assay: ProtoArray on-chip in vitro methylation, detected with 3xFlag-3xMBT; assay type: biochemical; conditions: ProtoArrays bearing 9,500 recombinant human proteins
T1 construct: 50 μg of GST or recombinant GSTtagged G9a SET domain and the cofactor SAM
T1 sequence (Q96KQ7 1038-1155 limits assumed): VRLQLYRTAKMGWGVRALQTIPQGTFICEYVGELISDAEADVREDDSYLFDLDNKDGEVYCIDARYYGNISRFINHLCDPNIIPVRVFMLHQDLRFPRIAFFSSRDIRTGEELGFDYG
Method: The assay was conducted as previously described (Levy et al. (2011) Epigenetics Chromatin 4, 19). Briefly, a ProtoArray (Invitrogen, version 5.0) was incubated overnight with 50 μg of GST or recombinant GSTtagged G9a SET domain and the cofactor SAM.
Arrays were analyzed using GenePix Pro 6.1 software (Molecular Devices) and feature values were assigned to proteins using the array list provided by Invitrogen. We designated the following criteria for “hits”: GST array signal-to-noise ratio (SNR) less than or equal to 1.5, G9a array SNR greater than or equal to 10, and a difference between the G9a array SNR and the GST array SNR of greater than or equal to 12. Hits were individually visually validated. Proteins were removed from the list of potential substrates if irregular array features appeared to interfere with the array spots or SNR calculations.

3×MBT domain of L3MBTL1 = assay: SILAC proteomic pull-down 3×MBT vs 3×MBTD355N from 293T nuclear extract, LC-MS/MS; assay type: binding, human
In short: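 SILAC-labelled HEK 293T nuclear extract (600 μg) bound overnight at 4 °C to GST-3×MBT or 3×MBTD355N beads, with forward and label-swap runs; proteins kept if quantified in both directions. Glutathione eluates had the GST domains depleted, then went through SDS-PAGE, in-gel trypsin digest, Orbitrap LC-MS/MS and MaxQuant quantitation.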

[1] = tested on: methylated histones (HeLa nucleosomes, calf thymus histones), p53K382me1, H3K9me2; assay: Far Western assay; assay type: binding
Method: For Far Western assays, proteins were separated by SDS-PAGE and transferred to a PVDF membrane. Following blocking, membranes were incubated overnight with the indicated domain. Domain binding was determined using an epitope tag-specific antibody and appropriate HRP-conjugated secondary antibody.
For Far Western assays on purified HeLa nucleosomes and calf thymus histones, the indicated amounts of nucleosome or histone were separated by SDS-PAGE and transferred to a PVDF membrane. The membrane was blocked in milk prepared with Tris-buffered saline with 0.1% Tween (TBST). Membranes were incubated overnight at 4° C. with 1 μg/ml of the indicated domain in TBST. Domain binding was determined using an epitope tag-specific antibody and appropriate HRP-conjugated secondary antibody.
For the SET8/p53 Far Westerns, p53 was methylated in vitro as previously described (Kuo et al., 2011), with 5 μg enzyme and 1 μg substrate per 25 μl of reaction volume incubated at 30° C. overnight. Following the methylation reaction, PreScission Protease was added directly to the reaction mix and samples were incubated overnight at 4° C. Blotting was conducted as described above. G9a SET domain/recombinant H3 (New England BioLabs) samples were prepared similarly, without a GST cleavage step.

| number of proteins detected on the G9a-methylated array but not on the control array (G9a SET domain) | Molecule | amount of protein captured from nucleoplasmic extract (3×MBT domain of L3MBTL1; 293T cells, silver stain, relative to the other domain) | number of the 544 identified proteins enriched at 2-fold versus the other domain (3×MBT domain of L3MBTL1; SILAC) | percentage of the 544 identified proteins enriched at 2-fold versus the other domain (3×MBT domain of L3MBTL1; SILAC) [%] | Far Western detection of recombinant H3 dimethylated at lysine 9 (H3K9me2) by G9a SET domain [1] | Far Western detection of recombinant p53 mono-methylated at lysine 382 by SET8 [1] | Far Western detection of histones ([1]; purified HeLa nucleosomes and calf thymus histones) | Protein Ratio 3xMBT/D355N (3×MBT domain of L3MBTL1; SILAC ratio, 293T nuclear extract pull-down, * = protein identified in only one labeling experiment) |
| --- | --- | --- | --- | --- | --- | --- | --- | --- |
| 112 | B1 | captured more proteins | 313 | 57.5 | specifically detects | detected | detected |  |
|  | B2 |  |  |  |  |  |  | 1.7 |
